Measured values reported in article PMC12269497, “Dimerization of the BAR domain–containing protein FAM92A modulates lipid binding and interaction with CBY1” (The Journal of Biological Chemistry, 2025).

Legend:
[1] = target: mouse FAM92A BAR domain (amino acids 70-283), untagged (mouse); assay: SEC-MALS; typically 200 μl at 70 μM injected; Superose 12 10/300 GL; 50 mM Tris pH 7.5, 1 mM DTT, 1 mM EDTA, 100 mM NaCl
[2] = target: mouse FAM92A BAR domain Mu1 (K176, K178, R179 to glutamic acid) (mouse); assay: as above
[3] = target: mouse FAM92A BAR domain Mu3 (R108, K109, R112, R114, K116 to glutamic acid) (mouse); assay: as above
[4] = target: Trx-Strep-tagged mouse FAM92A BAR domain (amino acids 70-283) (mouse); assay: BLI; Trx-Strep-tagged FAM92A BAR (1 μM) loaded on Strep-Tactin XT probes, His-tagged CBY1 variants in solution; PBS with 0.02% Tween-20 and 0.2% BSA; 1:1 binding model
[5] = target: mouse FAM92A BAR domain (amino acids 70-283), untagged (mouse); assay: ITC; CBY1 variants (200–300 μM) in the syringe, FAM92A BAR or its dimerization mutants (100–120 μM) in the cell; 25 °C; 50 mM Tris pH 7.5, 1 mM DTT, 1 mM EDTA, 100 mM NaCl; one-site binding model
[6] = target: mouse FAM92A BAR domain Mu4 (K169, K183, K194 to glutamic acid) (mouse); assay: SEC-MALS; typically 200 μl at 70 μM injected; Superose 12 10/300 GL; 50 mM Tris pH 7.5, 1 mM DTT, 1 mM EDTA, 100 mM NaCl
[7] = target: Trx-tagged full-length mouse FAM92A (mouse); assay: as above
[8] = target: mouse FAM92A BAR domain Mu2 (R201, R203, R205 to glutamic acid) (mouse); assay: as above
[9] = target: mouse FAM92A BAR domain Mu5 (R72, K83, K94 to glutamic acid) (mouse); assay: as above
[10] = target: the molecule itself; assay: as above
[11] = target: T1, Trx-Strep-tagged mouse FAM92A BAR domain (amino acids 70-283) (mouse); assay: BLI
T1 chain: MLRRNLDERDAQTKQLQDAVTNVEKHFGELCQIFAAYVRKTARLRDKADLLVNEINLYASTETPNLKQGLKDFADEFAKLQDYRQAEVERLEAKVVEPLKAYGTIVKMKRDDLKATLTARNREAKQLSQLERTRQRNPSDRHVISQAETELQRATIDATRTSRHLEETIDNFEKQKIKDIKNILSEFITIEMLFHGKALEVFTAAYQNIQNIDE

“mouse FAM92A BAR domain (amino acids 70-283), untagged (domain or fragment)” showed a stoichiometry N [1] of 2.

Work on “mouse FAM92A BAR domain Mu1 (K176, K178, R179 to glutamic acid) (domain or fragment)” yielded a stoichiometry N [2] of 2.

For “mouse FAM92A BAR domain Mu3 (R108, K109, R112, R114, K116 to glutamic acid) (domain or fragment)”, the stoichiometry N [3] was 2.

“MBP-His-tagged mouse CBY1 4E (L77E, L84E, L91E, L98E) (from UniProt Q9D1C2 1-127) (natural protein)” was tested, and the Kd [4] was 5.6 µM and the Kd [5] was 2.8 µM.

In the case of “mouse FAM92A BAR domain Mu4 (K169, K183, K194 to glutamic acid) (domain or fragment)”, the stoichiometry N [6] is reported as 2.

Work on “Trx-tagged full-length mouse FAM92A (natural protein)” yielded a stoichiometry N [7] of 2.

Work on “mouse FAM92A BAR domain Mu2 (R201, R203, R205 to glutamic acid) (domain or fragment)” yielded a stoichiometry N [8] of 2.

For “mouse FAM92A BAR domain Mu5 (R72, K83, K94 to glutamic acid) (domain or fragment)”, the stoichiometry N [9] was 2.

B1: Trx-tagged mouse CBY1 coiled-coil domain (amino acids 61-127) (domain or fragment, UniProt Q9D1C2 61-127, looked up)
chain: ADSVISGGVDRRETQRLRKRNQQLEEENNLLRLKVDILLDMLSETTAESHLKDKELDELKVTNRRRK
notes: mouse CBY1, GenBank NP_082910.1, amino acids 61-127 (C-terminal coiled-coil domain); also called CBY1 CC; source: E. coli BL21 (DE3), purified; not shown: Trx, N-terminal, kept
With B1 the “stoichiometry N” value [10] was 2.

B2: Trx-His-tagged mouse CBY1 N-terminal region (amino acids 1-70) (domain or fragment)
chain: MPLFGSIFSPKKTPPRKSASLSNLHSLDRSTRELELGLDYGTPTMNLAGQSLKFENGQWVADSVISGGVD
B2 gave a Kd [4] of 10 µM, a Kd [11] of 10.8 µM and a Kd [5] of 3.6 µM.

B3: MBP-His-tagged full-length mouse Chibby1 (CBY1) (natural protein, UniProt Q9D1C2 1-127, looked up)
chain: MPLFGSIFSPKKTPPRKSASLSNLHSLDRSTRELELGLDYGTPTMNLAGQSLKFENGQWVADSVISGGVDRRETQRLRKRNQQLEEENNLLRLKVDILLDMLSETTAESHLKDKELDELKVTNRRRK
notes: mouse CBY1, GenBank NP_082910.1, amino acids 1-127; also called CBY1 FL; CBY1-FL; source: E. coli BL21 (DE3), purified (Ni-NTA, SEC); not shown: MBP, N-terminal, kept; His6, N-terminal, kept
With B3 the “stoichiometry N” value [10] was 2, the Kd [4] was 0.25 µM and the Kd [5] was 0.15 µM.
